Experimental data as given in the nanobody polyreactivity screen of Harvey et al. (2022).

Assay: yeast display, Sf9 membrane polyspecificity reagent, FACS + sequencing; frameworks hold sequencing errors
Method in brief: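 Nanobodies came from a synthetic yeast display library in Saccharomyces cerevisiae BJ5465, induced with galactose for 36–48 hours and stained for 1 hour at 4 °C with 10% biotinylated, detergent-solubilized Sf9 membrane reagent. Cells were enriched on streptavidin microbeads and then FACS-sorted, with low and high (top ~1%) gates set on anti-HA fluorescence for expression and streptavidin fluorescence for reagent binding. Each polyreactivity label reflects the gate a clone came from. Genes were amplified by colony PCR, sequenced by MiSeq 2 × 250 and filtered by CDR length.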

Sequence	polyreactivity (PSR sort gate)
QVQLVDSGGGLVQAGGSLRLSCAASGSNYVDYDMGWYRQAPGKERDLVAALTYSGARTYYADSVKGRFTISRDNAENTVYLQMNSLKPEDTAVYYCNAAGYPYPYRGDYDYWGQGTQVTVSS	low polyreactivity
QVQLVESGGGLVQAGGSLRLSCAASGFTFRSNVMGWSRQAPGKERELVAGITQRGGRTYYADSEKGRFTISRDNAKNTVYLQMNSLKPEDTAVYYCAADRSEYDYWGQGTQVTVSS	high polyreactivity
QVQLVESGGGLVQAGGSLRLSCAASGSTFHRYAMGWYRQAPGKERELVAAITSSGDITYYADSVKGRFTISRDNAKNTVYLQMNSLKPEDTAVYYCNADGFYSWLYDYWGQGTQVTVSS	low polyreactivity
QVQLVETGGGLVQAGGRLRLSCAASGRILPGNAMGWSRQAPGKERELVAAISSGGRTNYADSVKGRFTISRDNAKNTVYLQMNSLKPEESAVYYCAKRTVWWSNWHYYPPTYNYWGQGTQVTVSS	high polyreactivity
QVQLVESGAGLVQAGGSLRLSCDASGSIFSWYAMGWYRQARGKERELVAAITWSGGSTYYADSVKGRFTISRDNAKNTVYLEMNSLKPEDTAVYYCNTYSYYAFDWGLGTQVTVSS	high polyreactivity
QVQLVESGGGLVQAGGSLRLICAASGFTFTDYAMGWYRQAPGKERELVAVIDSGGSTYYADSVKGRFTISRDNAKNTVYLQMNSLKPEDTAVYYCAAYNGTAPSEDYLGQGTQVTVSS	low polyreactivity
QVQLVESGGGLVQAGGSLRLSCAASGYTFASYDMGWYRQAPGKERELVAAIDWSGGSTYYADSVKGRFTISRDNAKNTVYLQMNSLKPEDTAVYYCAAERPWTYGSDGMDYWGQGTQVTVSS	low polyreactivity
QVQLVESGGGLVQAGGSLRLSCAASGITFYRYAMGWYRQAPGKERELVAAISYRGGRTFYADSVKGRFTISRDNAKNTVYLQMNSLKPEDTAVYYCNARDYYEKMDYWGQGTQVTVSS	high polyreactivity
QVQLVDSGGGLVQAGGILRLICAASGSTFGFYAMGWYRQAPGKERELVAAITTGGSTNYADSVKGRFTISRDNAKNTVYLQMNSLKPEDTAVYYCNADVFWNPYYDYDFWGQGTQVTVSS	high polyreactivity
QVPLVESGGGLVQAGGSLRLSCAASGRIFSSYAMGWYRQAPGKERELVAAISSRGGSTYYADSVKGRFTISRDNAKNTVYLQMNSLKPEDTAVYYCARVKYSGVVYKYDYWGQGTQVTVSS	high polyreactivity
QVQLVESGGGLVQAGGRLRLSCATSGYIFYDYDMGWYRQAPGKERELVAAIRRSTGTTYYADSVKGRFTISRDNEKNTVYLLMISLKPESTAVYYCAALFRPRVHRYDYWGQGTQVTVSS	low polyreactivity
QVQLVESGGGLVQAGGSLRLSCAASGFTFWRYAMGWYRQAPGKERELVAAISRNGGRTYYADSVKGRFTISRDNAKNTVYLQMNSLKPEDTAVYYCAADSDIEYEYWGQGTQVTVSS	high polyreactivity
QVQLVESWGGLVQAGGSLRLSCAASGFTFNANAMGWYRQAPGKERELVAAISLSGGRTYYADSVKGRFTISRDNEKNTVYLQMNSLKPVDTAVYYCAASPDGSFRRFSRVVSGDYWGQGTQVTVSS	high polyreactivity
QVQLVESGGGLVQAGGSLRLSCAASGRIFRIYAMGWNRQAPGKERELVARLTYSGGSTYYADSVKGRFTISRDNAKNTVYLQMNSLKPEDTAVYYCAADWLGYQYGYWGQGTQVTVSS	low polyreactivity
QVQLVESGGGLVQAGGSLRLSCAAYGSIIVRYAMGWYGQAPGKVRELVPTITFRDTSTYYADSVKGRFTSSRDNAKNTVYLQMNSLKPEDSAVYYCNAHIPTNRSYVPAVRGEDDYWGQGTQVTVSS	low polyreactivity
QVQHVESGGGLVQAGGSLRLSCAASGITYGRYTMGWYRQAPGKERELVAAITNGDITYYADSVKGRFTISRDNAKNTVYLQMNSLKQEDTAVYYCAADRYFWYDYWGQGTQVTVSS	high polyreactivity
QVQLEESGGGLVQAGGSLRLSCAASGIISTYYVMGWYRQAPGKERELVAAITGGDSSTYYADSVKGRFTISRDTAKNTVYLQMNSLIPDDTAVYYCAKEYYYARGARYDYWGQGTQVTVSS	low polyreactivity
